Measurements reported in patent US11708423B2, “Chimeric engulfment receptor molecules and methods of use” (CERO THERAPEUTICS, INC., priority 2017, dated 2023).

B1: CER116: Tim4 binding and transmembrane domains, TRAF6 primary and TLR8 secondary signaling domains; SEQ ID NO:143 (protein)
chain: MSKGLLLLWLVTELWWLYLTPAASEDTIIGFLGQPVTLPCHYLSWSQSRNSMCWGKGSCPNSKCNAELLRTDGTRIISRKSTKYTLLGKVQFGEVSLTISNTNRGDSGVYCCRIEVPGWFNDVKKNVRLELRRATTTKKPTTTTRPTTTPYVTTTTPELLPTTVMTTSVLPTTTPPQTLATTAFSTAVTTCPSTTPGSFSQETTKGSAFTTESETLPASNHSQRSMMTISTDIAVLRPTGSNPGILPSTSQLTTQKTTLTTSESLQKTTKSHQINSRQTILIIACCVGFVLMVLLFLAFLMSLLNCENSCGSSQSESDCCVAMASSCSAVTKDDSVGGTASTGNLSSSFMEEIQGYDVEFDPPLESKYECPICLMALREAVQTPCGHRFCKACIIKSIRDAGHKCPVDNEILLENQLFPDNFAKREILSLMVKCPNEGCLHKMELRHLEDHQAHCEFALMDCPQCQRPFQKFHINIHILKDCPRRQVSCDNCAASMAFEDKEIHDQNCPLANVICEYCNTILIREQMPNHYDLDCPTAPIPCTFSTFGCHEKMQRNHLARHLQENTQSHMRMLAHHLFYWDVWFIYNVCLAKVKGYRSLSTSQTFYDAYISYDTKDASVTDWVINELRYHLEESRDKNVLLCLEERDWDPGLAIIDNLMQSINQSKKTVFVLTKKYAKSWNFKTAFYLALQRLMDENMDVIIFILLEPVLQHSQYLRLRQRICKSSILQWPDNPKAEGLFWQTLRNVVLTENDSRYNNMYVDSIKQY
modifications: CER116 protein
B2: CER21−HPV16 E7 TCR: tandem expression cassette: CER21, T2A peptide, HPV16 E7 specific TCR; SEQ ID NO:166 (protein)
chain: MSKGLLLLWLVTELWWLYLTPAASEDTIIGFLGQPVTLPCHYLSWSQSRNSMCWGKGSCPNSKCNAELLRTDGTRIISRKSTKYTLLGKVQFGEVSLTISNTNRGDSGVYCCRIEVPGWFNDVKKNVRLELRRATTTKKPTTTTRPTTTPYVTTTTPELLPTTVMTTSVLPTTTPPQTLATTAFSTAVTTCPSTTPGSFSQETTKGSAFTTESETLPASNHSQRSMMTISTDIAVLRPTGSNPGILPSTSQLTTQKTTLTTSESLQKTTKSHQINSRQTILIIACCVGFVLMVLLFLAFLHHLFYWDVWFIYNVCLAKVKGYRSLSTSQTFYDAYISYDTKDASVTDWVINELRYHLEESRDKNVLLCLEERDWDPGLAIIDNLMQSINQSKKTVFVLTKKYAKSWNFKTAFYLALQRLMDENMDVIIFILLEPVLQHSQYLRLRQRICKSSILQWPDNPKAEGLFWQTLRNVVLTENDSRYNNMYVDSIKQYLEGGGEGRGSLLTCGDVEENPGPMAPGLLCWALLCLLGAGLVDAGVTQSPTHLIKTRGQQVTLRCSPKSGHDTVSWYQQALGQGPQFIFQYYEEEERQRGNFPDRFSGHQFPNYSSELNVNALLLGDSALYLCASSLGWRGGRYNEQFFGPGTRLTVLEDLRNVTPPKVSLFEPSKAEIANKQKATLVCLARGFFPDHVELSWWVNGKEVHSGVCTDPQAYKESNYSYCLSSRLRVSATFWHNPRNHFRCQVQFHGLSEEDKWPEGSPKPVTQNISAEAWGRADCGITSASYQQGVLSATILYEILLGKATLYAVLVSTLVVMAMVKRKNSRAKRSGSGATNFSLLKQAGDVEENPGPMWGVFLLYVSMKMGGTTGQNIDQPTEMTATEGAIVQINCTYQTSGFNGLFWYQQHAGEAPTFLSYNVLDGLEEKGRFSSFLSRSKGYSYLLLKELQMKDSASYLCASVDGNNRLAFGKGNQVVVIPNIQNPEPAVYQLKDPRSQDSTLCLFTDFDSQINVPKTMESGTFITDKCVLDMKAMDSKSNGAIAWSNQTSFTCQDIFKETNATYPSSDVPCDATLTEKSFETDMNLNFQNLLVIVLRILLLKVAGFNLLMTLRLWSS
modifications: CER21_T2A_HPV16_E7_TCR tandem cassette

Tests used:
[1] = test system: pHrodo-red labeled, dexamethasone treated thymocytes; experiment: Luminal degradation of engulfed thymocytes in CER-transduced Ba/F3 cells (time-lapse imaging); type: cell-based
Procedure: Luminal degradation in CER-transduced cells was also evaluated following engulfment. Ba/F3 cells transduced with CER21 or CER116 were co-cultured with pHrodo-red labeled, dexamethasone treated thymocytes overnight and subsequently purified by FACS. Target cell destruction was visualized by time-lapse imaging and quantified over time (FIG. 85F). […] CER116-harboring Ba/F3 cells (top) catabolize target cells, allowing cells to return to homeostasis and resume immune responsiveness. The addition of a TRAF6 signaling domain to the CER construct promotes rapid destruction of engulfed material.

Racl = Racl activation (PAK-PBD pull-down, immunoblot) in CER-transduced Ba/F3 cells; type: cell-based; details: 2 hours co-culture with thymocytes, compared to CER21
Excerpt: The Rho family of GTPases play essential roles in actin assembly during phagocytosis. Inhibition of either Rho GTPase Racl or CDC42 in macrophages results in a complete blockade of FcR-mediated phagocytosis due to defective actin assembly. To investigate induction of phagocytic signal transduction cascades, CER-expressing cells were interrogated for the activation of CDC42 and Racl. […] Ba/F3 cells were transduced with lentiviral vectors comprising CER21 nucleic acid, CER116 nucleic acid, or vector alone (mock). Target thymocyte cells were stained with pHrodo red. CER-transduced Ba/F3 cells were co-cultured with dexamethasone pre-treated thymocytes for 2 hours. The Racl inhibitor NSC23766 (Selleck Chem) was added during the co-culture in appropriate wells. Cells were then collected, solubilized in lysis buffer, and immunoprecipitation was performed on protein lysates to detect phospho-Racl using PAK-PBD agarose beads (Cytoskeleton, Inc.). Immunoprecipitates were eluted and 25 μg of protein was loaded onto SDS-PAGE gradient gels and then probed with monoclonal, mouse anti-Racl primary antibody (Cytoskeleton Inc.) overnight at 4° C., washed, and hybridized with secondary, anti-mouse antibody conjugated to horseradish peroxidase (Jackson Labs) (FIG. 85A). […] Protein gel bands were quantified using ImageJ image processing program, and the proportion of activated Racl was quantified (FIG. 85B). […]

[2] = test system: CER-transduced CD4+ T cells; experiment: Mass cytometry (CyTOF) with viSNE marker analysis of CER-transduced CD4+ T cells; type: cell-based, human
Excerpt: CD4+ T cells were transduced with lentiviral vector comprising CER104, CER116, or CER117 nucleic acid. CER104 (SEQ ID NO:133) comprises a Tim4 binding domain, Tim4 transmembrane domain, and an engulfment signaling domain comprising a primary engulfment signaling domain comprising a TLR8 signaling domain and a secondary engulfment signaling domain comprising a DAP12 signaling domain. CER116 (SEQ ID NO:143) comprises a Tim4 binding domain, Tim4 transmembrane domain, and an engulfment signaling domain comprising a primary engulfment signaling domain comprising a TRAF6 signaling domain and a secondary engulfment signaling domain comprising a TLR8 signaling domain. CER117 (SEQ ID NO:144) comprises a Tim4 binding domain, Tim4 transmembrane domain, and an engulfment signaling domain comprising a primary engulfment signaling domain comprising a TLR8 signaling domain and a secondary engulfment signaling domain comprising a TRAF6 signaling domain. CER-transduced CD4+ T cells were co-cultured with E7 TCR-transduced CD8+ T cells and HPV+SCC152 target cells and interrogated by mass cytometry (CyTOF) with viSNE for visualization of high dimensional single cell data (FIGS. 82-84). Intact CER-transduced CD4+ T cells are shown in plots displaying tSNE1 (horizontal) and tSNE2 (vertical) axes. 27 intracellular markers were used for the viSNE analysis. Each dot represents a single cell. […] Red represents high expression and blue represents low expression for each marker. Populations of CD4^+ T cells were generated using a clustering algorithm from all 27 markers and overlaid onto the viSNE map. […] Populations of CD4^+ T cells were generated using a clustering algorithm from all 18 markers and overlaid onto the viSNE map (FIG. 83A). […] Color plots by 18 intracellular markers (CD28, CCR7, CD45RA, PD1, CD127, Perforin, CD49d, CD85j, CD38, CD27, Granzyme B, CD57, CD25, CD69, CD154, CD56, HLA-DR, and TCRγδ) show the phenotype across viSNE ‘islands’ (FIG. 83B). Red represents high expression and blue represents low expression for each marker. Highlighted region with arrow indicates cells expressing T cell activation marker CD69. Populations of CD4^+ T cells were generated using a clustering algorithm from 18 intracellular markers (CD28, CCR7, CD45RA, PD1, CD127, Perforin, CD49d, CD85j, CD38, CD27, Granzyme B, CD57, CD25, CD69, CD154, CD56, HLA-DR, and TCRγ6) and overlaid onto the viSNE map. […] Color plots by the 18 intracellular markers show the phenotype across viSNE ‘islands’ (FIG. 84B). Red represents high expression and blue represents low expression for each marker. Highlighted region with arrow indicates cells expressing the naïve T cell marker CD45RA.

[3] = Engulfment of phosphatidylserine coated latex beads; type: cell-based
SCC152 cells [4] = experiment: Cytokine response of tandem cassette transduced CD8+ T cells; type: cell-based, human; details: CD8+ T cells co-cultured with SCC152 cells
SCC152 cells [5] = experiment: Phagocytic activity of tandem expression cassette transduced CD8+ T cells; type: cell-based, human
Procedure: Phagocytic activity of tandem expression cassette transduced CD8+ T cells was detected by co-culturing tandem expression cassette transduced CD8+ T cells with SCC152 cells for 6 hours at a 1:1 ratio. Phagocytic events were visualized and quantified using KEYENCE BZ-X710 fluorescence microscope, 20X objective and hybrid capture software.

SCC152 cells [6] = test system: SCC152 cells
Procedure: Peripheral blood was collected by venipuncture from a human donor, and human peripheral blood mononuclear cells (PBMCs) were isolated by density gradient centrifugation using lymphocyte separation media. CD8+ T cells were enriched from PBMCs using a commercially available isolation kit and activated with anti-CD3 and anti-CD28 in Complete Cell Growth Media. 50 μl of viral vector expressing the CER-HPV16 E7 TCR combination were diluted in 0.5 ml Complete Cell Growth Media and added to the CD8+ T cells. The transduced T cells were then centrifuged at 270×g rpm for 1 hour in a 32° C. pre-warmed centrifuge. The T cells were incubated for 24 hours at 37° C. T cells were expanded for another 72 hours in Complete Cell Growth Media, de-beaded, and allowed to expand x 5 days prior to being utilized for functional assays.
Cytotoxic activity of tandem expression cassette transduced CD8+ T cells was detected using a caspase 3/7 apoptosis reagent (IncuCyte®) that couples the activated caspase 3/7 recognition motif with a red reagent that fluoresces upon cleavage. The fluorescent signal was measured using fluorescent microscopy. […] The caspase 3/7 apoptosis reagent was added to the co-culture, and cytotoxic activity was measured over time by measuring fluorescence (see, FIG. 40). […]

| Molecule | time to near complete resolution of luminal contents [1] | luminal content degradation over time ([1]; FACS purified after overnight co-culture) | Racl signaling (proportion of activated Racl) (Racl) | memory formation after antigen encounter ([2]; CD4+ T cells) | viSNE islands expressing T cell activation marker CD69 ([2]; CD4+ T cells after antigen encounter) | viSNE islands expressing intracellular marker IFNγ ([2]; CD4+ T cells after co-culture with E7 TCR CD8+ T cells and SCC152 cells) | viSNE islands expressing naïve T cell marker CD45RA within the CCR7+ population ([2]; compared to controls) | incubation time after which phosphatidylserine coated beads could be visualized inside the T cells [3] | engulfment of phosphatidylserine coated beads ([3]; CD8+ T cells, data not shown) | antigen specific effector function (IFNγ response) (SCC152 cells [4]) | phagocytosis of SCC152 cells (SCC152 cells [5]; CD8+ T cells, 6 hours, 1:1 ratio) | dependence of engulfment of SCC152 cells on Racl (SCC152 cells [5]; Racl inhibitor NSC23766 (50 μM), data not shown) | cytotoxic activity toward SCC152 cells (caspase 3/7) (SCC152 cells [6]; CD8+ T cells, 1:1 ratio) | cytotoxic response relative to CD8+ T cells comprising HPV16 E7 TCR alone (SCC152 cells [6]; by 6 hours) |
| --- | --- | --- | --- | --- | --- | --- | --- | --- | --- | --- | --- | --- | --- | --- |
| B1 | ≤ 36 h | enhanced CER116 luminal content degradation over time | enhanced Racl signaling | associated with memory formation after antigen encounter | enrichment of islands expressing the T cell activation marker CD69 | enrichment of islands expressing the intracellular marker IFNγ | loss of islands expressing the naïve T cell marker CD45RA |  |  |  |  |  |  |  |
| B2 |  |  |  |  |  |  |  | about 30 minutes | engulfed streptavidin coated latex beads | exhibit antigen specific effector function as measured by IFNγ response | capable of phagocytosing SCC152 cells | Racl-dependent manner | exhibit cytotoxic activity toward SCC152 cells | exponentially higher |
